Earlier results as cited in article PMC3982939.

Legend:
[1] = target: uroguanylin (Homo sapiens) (UniProt Q16661)
guanylin (Homo sapiens) = guanylin (Homo sapiens) (UniProt Q02747)

## Guanylyl cyclase C ECD (from UniProt P25092)
[1]
  Kd: 1 nM
Guanylin (Homo sapiens)
  Kd: 10 nM
